According to doi:10.1101/2021.12.31.474340:

Biological target: guanylyl cyclase-A (GC-A), human, stably expressed in QBIHEK293A cells (human) (UniProt P16066)
Assay: radioligand binding

UniProt P16066, sequence (P16066 33-473): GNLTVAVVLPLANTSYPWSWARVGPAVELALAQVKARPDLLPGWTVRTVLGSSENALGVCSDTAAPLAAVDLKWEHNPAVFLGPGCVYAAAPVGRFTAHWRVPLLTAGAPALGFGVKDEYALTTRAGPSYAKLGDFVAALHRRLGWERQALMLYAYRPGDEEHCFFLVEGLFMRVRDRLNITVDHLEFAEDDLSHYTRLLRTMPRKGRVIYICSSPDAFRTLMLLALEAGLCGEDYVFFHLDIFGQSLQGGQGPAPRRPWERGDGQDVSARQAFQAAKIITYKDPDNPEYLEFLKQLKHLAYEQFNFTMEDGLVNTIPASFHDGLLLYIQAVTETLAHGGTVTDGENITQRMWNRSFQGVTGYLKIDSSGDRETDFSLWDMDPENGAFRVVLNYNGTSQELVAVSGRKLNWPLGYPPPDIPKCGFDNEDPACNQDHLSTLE

increase of binding with increasing concentrations of compound #20: 71%
increase of overall binding with 10 uM compound #20 against control: 60%
Substance: ^125I-ANP (peptide)
